Test results from WO2017222556A2 (dated 2017).

Assays:
NKG2D on NKL cells = molecular target: T1, NKG2D on NKL cells (human, UniProt P26718 1-216); experiment: cell-based or functional assay
T1 sequence (looked up): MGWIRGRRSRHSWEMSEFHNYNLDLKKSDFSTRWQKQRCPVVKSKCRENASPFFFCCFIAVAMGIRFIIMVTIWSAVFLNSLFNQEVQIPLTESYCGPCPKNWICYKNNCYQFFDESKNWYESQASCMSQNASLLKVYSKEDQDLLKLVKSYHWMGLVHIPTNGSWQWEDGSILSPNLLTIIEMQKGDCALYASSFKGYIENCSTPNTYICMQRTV

mouse NKG2D-Fc = molecular target: T2, mouse NKG2D-Fc (mouse, UniProt O54709 94-232); experiment: competition ELISA: inhibition of mouse NKG2D-Fc binding to plate-coated MICA
T2 construct: also called murine NKG2D-Fc; murine NKG2D; not shown: Fc part, not described
T2 sequence (looked up): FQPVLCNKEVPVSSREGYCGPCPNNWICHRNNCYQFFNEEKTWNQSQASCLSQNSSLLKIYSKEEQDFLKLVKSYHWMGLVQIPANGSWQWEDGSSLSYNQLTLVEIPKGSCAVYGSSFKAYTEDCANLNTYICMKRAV

human NKG2D-Fc [1] = molecular target: T3, human NKG2D-Fc (human, UniProt P26718 78-216); experiment: competition ELISA: inhibition of 2 nM human NKG2D-Fc binding to plate-coated WT sMICA
T3 construct: also called human NKG2D-Fc reagent; not shown: Fc part, not described
T3 sequence (looked up): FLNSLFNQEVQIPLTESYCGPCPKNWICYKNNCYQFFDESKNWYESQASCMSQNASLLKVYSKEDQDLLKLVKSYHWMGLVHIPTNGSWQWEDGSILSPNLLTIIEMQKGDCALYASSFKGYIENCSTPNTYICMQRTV

biotinylated human NKG2D [2] = molecular target: T4, biotinylated human NKG2D (human, UniProt P26718 78-216); experiment: biolayer interferometry (Octet), surface coated biotinylated human NKG2D, 100 nM protein
T4 construct: also called surface coated biotinylated human NKG2D; recombinant biotinylated NKG2D
T4 sequence (looked up): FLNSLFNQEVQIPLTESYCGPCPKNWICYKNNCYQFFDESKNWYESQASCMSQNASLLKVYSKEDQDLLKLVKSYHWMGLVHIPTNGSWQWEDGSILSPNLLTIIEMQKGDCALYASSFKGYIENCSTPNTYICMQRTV

human NKG2D-Fc [3] = molecular target: T3, human NKG2D-Fc; experiment: competition ELISA: inhibition of human NKG2D-Fc binding to plate-coated WT sMICA
biotinylated human NKG2D [4] = molecular target: T4, biotinylated human NKG2D; experiment: biolayer interferometry (Octet), surface-coated biotinylated human NKG2D
biotinylated human NKG2D [5] = molecular target: T4, biotinylated human NKG2D; experiment: biolayer interferometry (Octet), surface-coated biotinylated human NKG2D, titration 1-100 nM

| Binder | killing of FGFR3-expressing P815 cells by NKL cells, calcein-release assay, fold against WT at 0.78 nM (NKG2D on NKL cells) [fold] | binding result (mouse NKG2D-Fc) | IC50 (human NKG2D-Fc [1]) [nM] | fold better binding to NKG2D than WT NKG2DL (human NKG2D-Fc [1]) [fold] | fold affinity increase relative to WT al -a2 (biotinylated human NKG2D [2]) [fold] | fold reduction in the off-rate relative to WT (biotinylated human NKG2D [2]) [fold] | other results |
| --- | --- | --- | --- | --- | --- | --- | --- |
| al-a2 variant 16 (ligand) EPHSLRYNLTVLSWDGSVQSGFLTEVHLDGQPFLRCDRQKCRAKPQGQWAEDVLGNKTWDRETRDLTGWGKDLRMTLAHIKDQKEGLHSLQEIRVCEIHEDNSTRSSQHFYYDGELFLSQNLETLEWTMPQSSRAQTLAMNVRNFLKEDAMETDTHYHAMRADCLQELRRYLKSGVVLRRTVPPMVQVTRSEASGGSGDRVTITCRASQDVSTAVAWYQQKPGKAPKLLIYSASFLYSGVPSRFSGSGSGTDFTLTISSLQPEDFATYYCQQSYTTPPTFGQGTKVEIKGGSSRSSSSGGGGSGGGGEVQLVESGGGLVQPGGSLRLSCAASGFTFTSTGISWVRQAPGKGLEWVGRIYPTNGSTNYADSVKGRFTISADTSKNTAYLQMNSLRAEDTAVYYCARTYGIYDLYVDYTEYVMDYWGQGTLVTVSSGGSSRSSSSGGGGSGGGGDIQMTQSPSSLSASGGSGQITVTCRASGFYPWNITLSWRQDGVSLSHDTQQWGDVLPDGQGTYQTWVATRISQGEEQRFTCYMEHSGQHSTHPVPSGKGSHHHHHH | ~15 | binds | 0.7 | 27 | 30 | 18 | – |
| WED-MICA (ligand, also called WED- al-cc2 domains; WED soluble MICA) EPHSLRYNLTVLSWDGSVQSGFLTEVHLDGQPFLRCDRQKCRAKPQGQWAEDVLGNKTWDRETRDLTGWGKDLRMTLAHIKDQKEGLHSLQEIRVCEIHEDNSTRSSQHFYYDGELFLSQNLETKEWTMPQSSRAQTLAMNVRNFLKEDAMETDTHYHAMHADCLQELRRYLKSGVVLRRTVPPMVQVTRSEASGGSGDRVTITCRASQDVSTAVAWYQQKPGKAPKLLIYSASFLYSGVPSRFSGSGSGTDFTLTISSLQPEDFATYYCQQSYTTPPTFGQGTKVEIKGGSSRSSSSGGGGSGGGGEVQLVESGGGLVQPGGSLRLSCAASGFTFTSTGISWVRQAPGKGLEWVGRIYPTNGSTNYADSVKGRFTISADTSKNTAYLQMNSLRAEDTAVYYCARTYGIYDLYVDYTEYVMDYWGQGTLVTVSSGGSSRSSSSGGGGSGGGGDIQMTQSPSSLSASGGSGQITVTCRASGFYPWNITLSWRQDGVSLSHDTQQWGDVLPDGQGTYQTWVATRISQGEEQRFTCYMEHSGQHSTHPVPSGKGSHHHHHH | – | binds | – | – | – | – | binding result (human NKG2D-Fc [3]): binds |
| al-a2 variant 15 (ligand) EPHSLRYNLTVLSWDGSVQSGFLTEVHLDGQPFLRCDRQKCRAKPQGQWAEDVLGNKTWDRETRDLTGWGKDLRMTLAHIKDQKEGLHSLQEIRVCEIHEDNSTRSSQHFYYDGELFLSQNLETNEWTMPQSSRAQTLAMNVRNFLKEDAMETDTHYHAMRADCLQELRRYLKSGVVLRRTVPPMVQVTRSEASGGSGDRVTITCRASQDVSTAVAWYQQKPGKAPKLLIYSASFLYSGVPSRFSGSGSGTDFTLTISSLQPEDFATYYCQQSYTTPPTFGQGTKVEIKGGSSRSSSSGGGGSGGGGEVQLVESGGGLVQPGGSLRLSCAASGFTFTSTGISWVRQAPGKGLEWVGRIYPTNGSTNYADSVKGRFTISADTSKNTAYLQMNSLRAEDTAVYYCARTYGIYDLYVDYTEYVMDYWGQGTLVTVSSGGSSRSSSSGGGGSGGGGDIQMTQSPSSLSASGGSGQITVTCRASGFYPWNITLSWRQDGVSLSHDTQQWGDVLPDGQGTYQTWVATRISQGEEQRFTCYMEHSGQHSTHPVPSGKGSHHHHHH | – | binds | 1.7 | 11 | – | – | – |
| al-a2 variant 17 (ligand) EPHSLRYNLTVLSWDGSVQSGFLTEVHLDGQPFLRCDRQKCRAKPQGQWAEDVLGNKTWDRETRDLTLWGKDLRMTLAHIKDQKEGLHSLQEIRVCEIHEDNSTRSSQHFYYDGELFLSQNLETLEWTMPQSSRAQTLAMNVRNFLKEDAMETDTHYHAMRADCLQELRRYLKSGVVLRRTVPPMVQVTRSEASGGSGDRVTITCRASQDVSTAVAWYQQKPGKAPKLLIYSASFLYSGVPSRFSGSGSGTDFTLTISSLQPEDFATYYCQQSYTTPPTFGQGTKVEIKGGSSRSSSSGGGGSGGGGEVQLVESGGGLVQPGGSLRLSCAASGFTFTSTGISWVRQAPGKGLEWVGRIYPTNGSTNYADSVKGRFTISADTSKNTAYLQMNSLRAEDTAVYYCARTYGIYDLYVDYTEYVMDYWGQGTLVTVSSGGSSRSSSSGGGGSGGGGDIQMTQSPSSLSASGGSGQITVTCRASGFYPWNITLSWRQDGVSLSHDTQQWGDVLPDGQGTYQTWVATRISQGEEQRFTCYMEHSGQHSTHPVPSGKGSHHHHHH | ~15 | – | 0.6 | 32 | 30 | 18 | – |
| al-a2 variant 18 (ligand) EPHSLRYNLTVLSWDGSVQPGFLTEVHLDGQPFLRCDRQKCRAKPQGQWAEDVLGNKTWDRETRDLTLWGKDLRMTLAHIKDQKEGLHSLQEIRVCEIHEDNSTRSSQHFYYDGELFLSQNLETLEWTMPQSSRAQTLAMNVRNFLKEDAMETDTHYHAMRADCLQELRRYLKSGVVLRRTVPPMVQVTRSEASGGSGDRVTITCRASQDVSTAVAWYQQKPGKAPKLLIYSASFLYSGVPSRFSGSGSGTDFTLTISSLQPEDFATYYCQQSYTTPPTFGQGTKVEIKGGSSRSSSSGGGGSGGGGEVQLVESGGGLVQPGGSLRLSCAASGFTFTSTGISWVRQAPGKGLEWVGRIYPTNGSTNYADSVKGRFTISADTSKNTAYLQMNSLRAEDTAVYYCARTYGIYDLYVDYTEYVMDYWGQGTLVTVSSGGSSRSSSSGGGGSGGGGDIQMTQSPSSLSASGGSGQITVTCRASGFYPWNITLSWRQDGVSLSHDTQQWGDVLPDGQGTYQTWVATRISQGEEQRFTCYMEHSGQHSTHPVPSGKGSHHHHHH | ~15 | – | 0.5 | 38 | 30 | 18 | – |
| al-a2 variant 25 (ligand) EPHSLRYNLTVLSWDGSVQSGFLTEVHLDGQPFLRCDRQKCRAKPQGQWAEDVLGNKTWDRETRDLTGWGKDLRMTLAHIKDQKEGLHSLQEIRVCEIHEDNSTRSSQHFYYDGELFLSQNLETLEWTMPQSSRAQTLAMNVRNFLKEDAMETDTHYHAMRADCLSELRRYLKSGVVLRRTVPPMVQVTRSEASGGSGDRVTITCRASQDVSTAVAWYQQKPGKAPKLLIYSASFLYSGVPSRFSGSGSGTDFTLTISSLQPEDFATYYCQQSYTTPPTFGQGTKVEIKGGSSRSSSSGGGGSGGGGEVQLVESGGGLVQPGGSLRLSCAASGFTFTSTGISWVRQAPGKGLEWVGRIYPTNGSTNYADSVKGRFTISADTSKNTAYLQMNSLRAEDTAVYYCARTYGIYDLYVDYTEYVMDYWGQGTLVTVSSGGSSRSSSSGGGGSGGGGDIQMTQSPSSLSASGGSGQITVTCRASGFYPWNITLSWRQDGVSLSHDTQQWGDVLPDGQGTYQTWVATRISQGEEQRFTCYMEHSGQHSTHPVPSGKGSHHHHHH | – | – | – | – | – | – | EC50 for cell killing, fold improvement against variant 16 (NKG2D on NKL cells): ~5 fold; killing of FGFR3-expressing P815 cells by NKL cells, calcein-release assay, fold against variant 16 at 0.2 nM (NKG2D on NKL cells): ~3 fold; fold enhancement in equilibrium binding affinity against variant 16 (biotinylated human NKG2D [4]): 8 fold; Kd (biotinylated human NKG2D [5]): 0.062 nM |
| al-a2 variant 48 (ligand) EPHSLRYNLTVLSWDGSVQSGFLTEVHLDGQPFLRCDRQKCRAKPQGQWAEDVLGNKTWDRETRDLTGWGKDLRMTLAHIKDQKEGLHSLQEIRVCEIHEDNSTRSSQHFYYDGELFLSQNLETLEWTMPQSSRAQTLAMNVRNFLKEDAMATDTHYIAMRADCLAELRRYLKSGVVLRRTVPPMVQVTRSEASGGSGDRVTITCRASQDVSTAVAWYQQKPGKAPKLLIYSASFLYSGVPSRFSGSGSGTDFTLTISSLQPEDFATYYCQQSYTTPPTFGQGTKVEIKGGSSRSSSSGGGGSGGGGEVQLVESGGGLVQPGGSLRLSCAASGFTFTSTGISWVRQAPGKGLEWVGRIYPTNGSTNYADSVKGRFTISADTSKNTAYLQMNSLRAEDTAVYYCARTYGIYDLYVDYTEYVMDYWGQGTLVTVSSGGSSRSSSSGGGGSGGGGDIQMTQSPSSLSASGGSGQITVTCRASGFYPWNITLSWRQDGVSLSHDTQQWGDVLPDGQGTYQTWVATRISQGEEQRFTCYMEHSGQHSTHPVPSGKGSHHHHHH | – | – | – | – | – | – | fold reduction in NKG2D binding affinity (biotinylated human NKG2D [5]): 250 fold |
